The supplement of paper PMC10724198
± gives the standard deviation of the averaged measurements.

How the values were obtained:
Saccharomyces cerevisiae [1] = experiment: protein stability index of tFT-peptide fusion (C-terminal peptide) (PSI (0-1 scale)); higher = more stable (slower turnover)
Method: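 MPS profiling in S. cerevisiae of the tFT-X12 degron library: putative degron peptides plus stable controls, 12 aa, fused to the C-terminus of a sfGFP-mCherry timer. Cells are FACS-sorted into 8 mCherry/sfGFP bins and deep-sequenced. PSI runs from 0 (unstable) to 1 (stable). Backgrounds are wild type, das1Δ and doa10Δ at 30 °C, and wild type, das1Δ, cdc34-1 and cdc53-1 at 37 °C; 2-3 technical replicates each.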

Saccharomyces cerevisiae [2] = experiment: as above; settings: genetic background: wild type; temperature: 30 C
[3] = genetic background: cdc34-1, temperature: 37 C
[4] = genetic background: cdc53-1, temperature: 37 C
[5] = genetic background: das1 deletion, temperature: 30 C
[6] = genetic background: das1 deletion, temperature: 37 C
[7] = genetic background: doa10 deletion, temperature: 30 C
[8] = genetic background: wild type, temperature: 30 C
[9] = genetic background: wild type, temperature: 37 C
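Further: PSI is a weighted mean of sequencing reads over stability bins, variants kept only with over 10 reads, mCherry proximal and sfGFP distal, peptide attached via GGGS linker.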

Sequence | protein stability index (Saccharomyces cerevisiae [1]; [3]) | protein stability index (Saccharomyces cerevisiae [1]; [4]) | protein stability index (Saccharomyces cerevisiae [1]; [5]) | protein stability index (Saccharomyces cerevisiae [1]; [6]) | protein stability index (Saccharomyces cerevisiae [1]; [7]) | protein stability index (Saccharomyces cerevisiae [1]; [8]) | protein stability index (Saccharomyces cerevisiae [1]; [9]) | protein stability index (Saccharomyces cerevisiae [2])
SVFFRPVLICCA | 0.0234 ± 0.00059 | 0.0313 ± 0.0091 | 0.0774 ± 0.01 | 0.0628 ± 0.0047 | 0.0558 ± 0.0082 | 0.0558 ± 0.013 | 0.048 ± 0.0039 | 0.101 ± 0.037
SVLAIWLTVTLK | 0.0666 ± 0.029 | 0.0696 ± 0.029 | 0.146 ± 0.016 | 0.197 ± 0.0027 | 0.0915 ± 0.023 | 0.0938 ± 0.034 | 0.139 ± 0.0076 | 0.145 ± 0.0018
SVLVSVVLFVRS | 0.114 ± 0.055 | 0.237 ± 0.021 | 0.176 ± 0.019 | 0.33663 ± 7.1e-05 | 0.126 ± 0.032 | 0.168 ± 0.033 | 0.289 ± 0.026 | 0.279 ± 0.0029
SVSMYPKPHLIC | 0.571 ± 0.057 | 0.682 ± 0.023 | 0.596 ± 0.034 | 0.698 ± 0.034 | 0.119 ± 0.015 | 0.13 ± 0.017 | 0.181 ± 0.015 | 0.243 ± 0.0026
SVSRIFRTFSCY | 0.627 ± 0.023 | 0.759 ± 0.054 | 0.668 ± 0.013 | 0.681 ± 0.047 | 0.216 ± 0.035 | 0.224 ± 0.0094 | 0.396 ± 0.041 | 0.321 ± 0.07
SVVYVIYCGGIL | 0.446 ± 0.0082 | 0.481 ± 0.075 | 0.31 ± 0.036 | 0.555 ± 0.019 | 0.29 ± 0.0048 | 0.336 ± 0.013 | 0.503 ± 0.036 | 0.427 ± 0.036
SWFRRPFPPRLL |  | 0.6 ± 0.025 | 0.606 ± 0.052 | 0.67 ± 0.063 | 0.048 ± 0.068 |  | 0.0127 ± 0.018 | 0.158 ± 0.094
SWLAQCVVISLL | 0.634 ± 0.015 | 0.654 ± 0.014 | 0.507 ± 0.029 | 0.662 ± 0.016 | 0.352 ± 0.0055 | 0.364 ± 0.019 | 0.56 ± 0.061 | 0.459 ± 0.011
TALSRLFECFLS | 0.654 ± 0.052 | 0.744 ± 0.026 | 0.701 ± 0.028 | 0.768 ± 0.01 | 0.328 ± 0.0048 | 0.343 ± 0.03 | 0.499 ± 0.035 | 0.461 ± 0.046
TCGAKWIFSHIC | 0.6 ± 0.054 | 0.754 ± 0.011 | 0.646 ± 0.022 | 0.772 ± 0.016 | 0.14 ± 0.0052 | 0.152 ± 0.0092 | 0.275 ± 0.035 | 0.267 ± 0.019
TFVGWIVWLCGS | 0.537 ± 0.026 | 0.621 ± 0.0073 | 0.487 ± 0.033 | 0.6164 ± 0.0052 | 0.216 ± 0.0069 | 0.258 ± 0.022 | 0.456 ± 0.0097 | 0.331 ± 0.018
TFVLREYVWVMS | 0.443 ± 0.049 | 0.425 ± 0.011 | 0.254 ± 0.038 | 0.443 ± 0.0057 | 0.202 ± 0.0032 | 0.231 ± 0.027 | 0.426 ± 0.027 | 0.304 ± 0.0032
TIKGRLNVRKIE | 0.653 ± 0.055 | 0.7066 ± 0.0065 | 0.623 ± 0.0085 | 0.741 ± 0.025 | 0.3538 ± 0.0019 | 0.463 ± 0.032 | 0.573 ± 0.085 | 0.552 ± 0.11
TPYIFVLACLHV | 0.395 ± 0.0014 | 0.476 ± 0.0062 | 0.326 ± 0.013 | 0.5039 ± 0.0042 | 0.274 ± 0.013 | 0.309 ± 0.021 | 0.461 ± 0.0069 | 0.372 ± 0.0091
TRKKENERRKNG | 0.653 ± 0.032 | 0.7213 ± 0.0044 | 0.654 ± 0.015 | 0.71 ± 0.025 | 0.245 ± 0.013 | 0.278 ± 0.04 | 0.558 ± 0.012 | 0.422 ± 0.031
TSFCIFFVRFVI | 0.374 ± 0.059 | 0.478 ± 0.021 | 0.365 ± 0.022 | 0.50904 ± 0.00041 | 0.277 ± 0.021 | 0.289 ± 0.041 | 0.469 ± 0.015 | 0.322 ± 0.025
TVETYNRARKAS | 0.663 ± 0.0089 | 0.674 ± 0.014 | 0.631 ± 0.038 | 0.7 ± 0.015 | 0.218 ± 0.013 | 0.232 ± 0.039 | 0.412 ± 0.005 | 0.373 ± 0.075
TVVIFLCSYITT | 0.183 ± 0.06 | 0.24 ± 0.11 | 0.139 ± 0.015 | 0.298 ± 0.008 | 0.0829 ± 0.03 | 0.122 ± 0.04 | 0.275 ± 0.019 | 0.186 ± 0.0068
TYNVMFSPWRKA | 0.604 ± 0.07 | 0.7064 ± 0.005 | 0.667 ± 0.032 | 0.774 ± 0.0098 | 0.106 ± 0.007 | 0.148 ± 0.034 | 0.3808 ± 0.0022 | 0.206 ± 0.011
TYYPLNRSRFIG | 0.5858 ± 0.0048 | 0.7261 ± 0.0025 | 0.635 ± 0.035 | 0.7616 ± 0.0049 | 0.108 ± 0.0073 | 0.139 ± 0.0058 | 0.241 ± 0.023 | 0.277 ± 0.15

Sequence | protein stability index (Saccharomyces cerevisiae [1]; [3]) | protein stability index (Saccharomyces cerevisiae [1]; [4]) | protein stability index (Saccharomyces cerevisiae [1]; [5]) | protein stability index (Saccharomyces cerevisiae [1]; [6]) | protein stability index (Saccharomyces cerevisiae [1]; [7]) | protein stability index (Saccharomyces cerevisiae [1]; [8]) | protein stability index (Saccharomyces cerevisiae [1]; [9]) | protein stability index (Saccharomyces cerevisiae [2])
VAALFPPLRFLN | 0.554 ± 0.0075 | 0.711 ± 0.008 | 0.653 ± 0.017 | 0.734 ± 0.014 | 0.0912 ± 0.013 | 0.122 ± 0.036 | 0.224 ± 0.031 | 0.286 ± 0.045
VCFAWWGARCVA | 0.601 ± 0.01 | 0.619 ± 0.0063 | 0.468 ± 0.026 | 0.6475 ± 0.0032 | 0.304 ± 0.024 | 0.357 ± 0.028 | 0.534 ± 0.029 | 0.477 ± 0.023
VCFFLFWCLSFS | 0.4239 ± 0.0013 | 0.479 ± 0.021 | 0.343 ± 0.05 | 0.4916 ± 0.00098 | 0.348 ± 0.011 | 0.353 ± 0.025 | 0.476 ± 0.021 | 0.454 ± 0.034
VCLCVIICSMSV | 0.0201 ± 0.00092 | 0.041 ± 0.019 | 0.0324 ± 0.008 | 0.0699 ± 0.011 | 0.0265 ± 0.0033 | 0.0249 ± 0.0073 | 0.0544 ± 0.01 | 0.0535 ± 0.018
VCQVCVCFLFWR | 0.0977 ± 0.0034 | 0.0539 ± 0.0021 | 0.145 ± 0.032 | 0.181 ± 0.0077 | 0.27 ± 0.018 | 0.139 ± 0.016 | 0.169 ± 0.017 | 0.228 ± 0.043
VCVVVLVGVVFL | 0.188 ± 0.031 | 0.3491 ± 0.0012 | 0.237 ± 0.02 | 0.3828 ± 0.0025 | 0.198 ± 0.0055 | 0.24 ± 0.031 | 0.314 ± 0.0088 | 0.3 ± 0.036
VELRNCYLLVKA | 0.204 ± 0.0059 | 0.282 ± 0.013 | 0.222 ± 0.037 | 0.381 ± 0.013 | 0.178 ± 0.018 | 0.22 ± 0.032 | 0.34 ± 0.0065 | 0.327 ± 0.037
VFFLAFYFYRCF | 0.405 ± 0.02 | 0.464 ± 0.018 | 0.416 ± 0.015 | 0.545 ± 0.0085 | 0.186 ± 0.0064 | 0.194 ± 0.029 | 0.365 ± 0.0085 | 0.262 ± 0.02
VFMSVAPVSVLG | 0.115 ± 0.047 | 0.118 ± 0.045 | 0.198 ± 0.026 | 0.2589 ± 0.00033 | 0.154 ± 0.016 | 0.184 ± 0.023 | 0.235 ± 0.0013 | 0.29 ± 0.015
VFSAIPDWLILA | 0.492 ± 0.017 | 0.5094 ± 0.0035 | 0.387 ± 0.041 | 0.5492 ± 0.0043 | 0.279 ± 0.013 | 0.319 ± 0.016 | 0.462 ± 0.018 | 0.453 ± 0.0079
VFSVTVVFVSVL | 0.158 ± 0.0021 | 0.271 ± 0.062 | 0.192 ± 0.035 | 0.383 ± 0.014 | 0.168 ± 0.011 | 0.191 ± 0.024 | 0.324 ± 0.012 | 0.298 ± 0.046
VFVGGVSVLILF | 0.531 ± 0.051 | 0.638 ± 0.0089 | 0.438 ± 0.026 | 0.602 ± 0.0081 | 0.413 ± 0.0093 | 0.434 ± 0.033 | 0.584 ± 0.0086 | 0.516 ± 0.044
VFWLLVGLGCFS | 0.561 ± 0.017 | 0.563 ± 0.013 | 0.431 ± 0.025 | 0.572 ± 0.0075 | 0.41 ± 0.033 | 0.417 ± 0.028 | 0.5686 ± 0.0022 | 0.481 ± 0.012
VFYWVGVLCGWG | 0.298 ± 0.0073 | 0.391 ± 0.045 | 0.293 ± 0.026 | 0.4352 ± 0.0014 | 0.252 ± 0.012 | 0.29 ± 0.023 | 0.405 ± 0.018 | 0.375 ± 0.007
VGCMVVIWVLWG | 0.153 ± 0.0096 | 0.225 ± 0.025 | 0.19 ± 0.034 | 0.313 ± 0.013 | 0.145 ± 0.001 | 0.18 ± 0.026 | 0.278 ± 0.025 | 0.325 ± 0.043
VGFCICISIMSF | 0.0373 ± 0.016 | 0.109 ± 0.025 | 0.125 ± 0.025 | 0.214 ± 0.023 | 0.09907 ± 0.00077 | 0.108 ± 0.031 | 0.209 ± 0.027 | 0.213 ± 0.046
VGPLAPVCLLVL | 0.445 ± 0.025 | 0.4817 ± 0.0043 | 0.36 ± 0.038 | 0.516 ± 0.013 | 0.325 ± 0.012 | 0.359 ± 0.019 | 0.477 ± 0.0057 | 0.459 ± 0.046
VILCSCSFVLRP | 0.523 ± 0.011 | 0.583 ± 0.023 | 0.373 ± 0.021 | 0.57243 ± 0.00022 | 0.362 ± 0.026 | 0.376 ± 0.02 | 0.5617 ± 0.0053 | 0.401 ± 0.0085
VKIEVICRVSLI | 0.334 ± 0.031 | 0.459 ± 0.028 | 0.403 ± 0.02 | 0.495 ± 0.043 | 0.338 ± 0.0092 | 0.394 ± 0.05 | 0.404 ± 0.0055 | 0.429 ± 0.024
